Experimental data reported in patent US20190359693A1 (Janssen / Centocor, published 2019).
Changes are numbered by the printed parent chain.

B1: SD1087 (VHH)
VHH: EVQLVESGGGLVQPGGSLRLSCVISGLSLDTYAVGWFRQAPGKEREGITCISSGHGMTYYADSVKGRFTVSTDNAKNTVYLQMNGLQPEDTARYYCATESRYYCSDNWPAPQRYIYWGQGTQVTVSS
B2: SD3093 (VHH)
VHH: B1 VHH with V23A, I48V, T49S, V70I, A75S, G85S, Q87R, P88A, R93V, Q122L
B3: SD3055 (VHH)
VHH: B1 VHH with V23A, I24A, V34M, G35S, M57L, V70I, T72R, A75S, V79L, G85S
B4: SD3070 (VHH)
VHH: B1 VHH with V23A, M57I, A75S, V79L, G85S, Q87R, P88A, R93V, Q122L
B5: SD3074 (VHH)
VHH: B1 VHH with V23A, V70I, A75S, V79L, G85S, Q87R, P88A, R93V, Q122L
B6: SD3056 (VHH)
VHH: B1 VHH with V23A, I24A, V34M, G35S, M57F, V70I, T72R, A75S, V79L, G85S
B7: SD3069 (VHH)
VHH: B1 VHH with V23A, A75S, V79L, G85S, Q87R, P88A, R93V, Q122L
B8: SD3050 (VHH)
VHH: B1 VHH with V23A, I24A, V34M, G35S, V70I, T72R, A75S, V79L, G85S
B9: SD3073 (VHH)
VHH: B1 VHH with V23A, I48V, T49S, A75S, V79L, G85S, Q87R, P88A, R93V, Q122L
B10: SD3072 (VHH)
VHH: B1 VHH with V23A, I24A, A75S, V79L, G85S, Q87R, P88A, R93V, Q122L
B11: SD3071 (VHH)
VHH: B1 VHH with V23A, M57L, A75S, V79L, G85S, Q87R, P88A, R93V, Q122L
B12: SD3054 (VHH)
VHH: B1 VHH with V23A, I24A, V34M, G35S, M57I, V70I, T72R, A75S, V79L, G85S
B13: SD3049 (VHH)
VHH: EVQLVESGGGLVQPGGSLRLSCAASGLSLDTYAMSWFRQAPGKEREGVSCISSGHGMTYYADSVKGRFTISRDNSKNTLYLQMNSLQPEDTARYYCATESRYYCSDNWPAPQRYIYWGQGTQVTVSS
B14: SD3075 (VHH)
VHH: B13 VHH with M34V, S35G, M57I, R72T, Q87R, P88A, R93V, Q122L
B15: SD3100 (VHH)
VHH: B13 VHH with A24I, M34V, S35G, M57A, R72T, Q87R, P88A, R93V, Q122L
B16: SD3103 (VHH)
VHH: B13 VHH with A24I, M34V, S35G, M57D, R72T, Q87R, P88A, R93V, Q122L
B17: SD3102 (VHH)
VHH: B13 VHH with A24I, M34V, S35G, M57Q, R72T, Q87R, P88A, R93V, Q122L
B18: SD3052 (VHH)
VHH: B13 VHH with M57L
B19: SD3051 (VHH)
VHH: B13 VHH with M57I
B20: SD3101 (VHH)
VHH: B13 VHH with A24I, M34V, S35G, M57S, R72T, Q87R, P88A, R93V, Q122L
B21: SD3092 (VHH)
VHH: B13 VHH with A24I, M34V, S35G, R72T, Q87R, P88A, R93V, Q122L
B22: SD3053 (VHH)
VHH: B13 VHH with M57F
B23: SD3076 (VHH)
VHH: B13 VHH with M34V, S35G, M57L, R72T, Q87R, P88A, R93V, Q122L
B24: SD3104 (VHH)
VHH: B13 VHH with A24I, M34V, S35G, M57N, R72T, Q87R, P88A, R93V, Q122L
B25: SD3007 (VHH)
VHH: EVQLLESGGGLVQPGGSLRLSCAASGFTLENKAIGWFRQAPGKEREGVSCISKSGSWTYYADSVKGRFTISRDNSKNTVYLQMNSLRAEDTAVYYCATTTAGGGLCWDGTTFSRLASSWGQGTQVTVSS
B26: SD3011 (VHH)
VHH: B25 VHH with S49L
B27: SD3012 (VHH)
VHH: B25 VHH with S49L, A88P
B28: SD3010 (VHH)
VHH: B25 VHH with S49L, V79L
B29: SD3088 (VHH)
VHH: B25 VHH with S49L, V79L, Q124L
B30: SD3087 (VHH)
VHH: B25 VHH with S49L, A88P, Q124L
B31: SD3009 (VHH)
VHH: B25 VHH with I34M, G35S, S49L, V79L
B32: SD3008 (VHH)
VHH: B25 VHH with A88P
B33: SD1084 (VHH)
VHH: EVQLVESGGGLVQPGGSLKLSCAASGFTFSTSWMYWLRQAPGKGLEWVSVINTDGGTYYADSVKDRFTISRDNAKDTLYLQMSSLKSEDTAVYYCAKDWGGPEPTRGQGTQVTVSS
B34: SD3002 (VHH)
VHH: B33 VHH with K19R, D65G, A74S, D76N, S83N, K86R, S87A
B35: SD3004 (VHH)
VHH: B33 VHH with K19R, D65G, A74S, S83N, K86R, S87A
B36: SD3085 (VHH)
VHH: B33 VHH with K19R, D65G, A74S, D76N, S83N, K86R, S87A, Q111L
B37: SD3003 (VHH)
VHH: B33 VHH with K19R, Y35S, D65G, A74S, S83N, K86R, S87A
B38: SD3086 (VHH)
VHH: B33 VHH with K19R, L37V, D65G, A74S, D76N, S83N, K86R, S87A, Q111L
B39: SD3001 (VHH)
VHH: B33 VHH with K19R, Y35S, D65G, A74S, D76N, S83N, K86R, S87A
B40: SD1083 (VHH)
VHH: EVQLVESGGGLVQPGGSLRLSCAATGFTLENKAIGWFRQTPGSEREGVLCISKSGSWTYYTDSMRGRFTISRDNAENTVYLQMDSLKPEDTAVYYCATTTAGGGLCWDGTTFSRLASSWGQGTQVTVSS

The binders below were run against hemagglutinin (HA) of influenza B/Brisbane/60/08 (Victoria) (influenza B virus) (assay: cell-based or functional assay).

B1 and B2 are within 1.5-fold of each other in “VNA IC50” value: 0.034 µM for the first, 0.032 µM for the second.

B3 and B4 cannot be ordered by “VNA IC50” value: over 1 µM for the first, over 1 µM for the second.

First: B5
Second: B6
The “VNA IC50” value of the first is lower: 0.036 µM for the first, over 1 µM for the second.

First: B7
Second: B8
The “VNA IC50” value of the first is lower: 0.056 µM for the first, over 1 µM for the second.

First: B9
Second: B10
The “VNA IC50” value of the first is 5.7-fold lower: 0.028 µM for the first, 0.16 µM for the second.

B11 and B12 cannot be ordered by “VNA IC50” value: over 1 µM for the first, over 1 µM for the second.

B13 and B14 cannot be ordered by “VNA IC50” value: over 1 µM for the first, over 1 µM for the second.

B15 and B16 cannot be ordered by “VNA IC50” value: over 1 µM for the first, over 1 µM for the second.

B17 and B18 cannot be ordered by “VNA IC50” value: over 1 µM for the first, over 1 µM for the second.

B19 and B20 cannot be ordered by “VNA IC50” value: over 1 µM for the first, over 1 µM for the second.

Going from B21 to B22, the “VNA IC50” value rises from 0.051 µM to over 1 µM.

B23 and B24 cannot be ordered by “VNA IC50” value: over 1 µM for the first, over 1 µM for the second.

First: B25
Second: B26
The “VNA IC50” value of the first is higher: over 1 µM for the first, 0.053 µM for the second.

Compared with B27, B28 is 2.5-fold higher in “VNA IC50” value: 0.059 µM for the first, 0.149 µM for the second.

Compared with B29, B30 is 3.2-fold lower in “VNA IC50” value: 0.101 µM for the first, 0.032 µM for the second.

First: B31
Second: B32
The “VNA IC50” value of the first is lower: 0.194 µM for the first, over 1 µM for the second.

First: B33
Second: B34
The “VNA IC50” value of the first is 2.4-fold higher: 0.012 µM for the first, 0.005 µM for the second.

Going from B35 to B36, the “VNA IC50” value rises from 0.005 µM to 0.012 µM (2.4-fold).

Going from B37 to B38, the “VNA IC50” value falls from 0.101 µM to 0.04 µM (2.5-fold).

Going from B39 to B40, the “VNA IC50” value rises from 0.101 µM to 0.174 µM (1.7-fold).
